Data: the RNAGym collection of RNA variant scans (doi:10.1073/pnas.2313332121)

B1: TPR t1 (parent)
chain: GACCAAUCUGCCCUCAGAGCUCGAGAACAUCUUCGGAUGCAGAGGAGGCAGGCUUCGGUGGCGCGAUAGCGCCAACGUCCUCAACCUCCAAUGCAUCCCACCACAUGAUGAUGCCUGAAGAGCCUUGGUUUUUUG

Variants of: B1
Assay: polymerase ribozyme fitness, log enrichment relative to wild type (log ratio); higher = more active; in vitro selection for triplet polymerase activity
Summary of the method: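 Fitness compares each genotype's enrichment to that of the wild type on a logarithmic scale, averaging replicates with inverse-variance weights. The logarithm is base 2. Enrichment came from Illumina sequencing of input and output libraries after one triplicate round of in vitro selection, which included frozen incubation at −7 °C, of PCR-built, transcribed mutant libraries of each subunit of a heterodimeric triplet polymerase ribozyme. Only genotypes with ≥10 input reads and ≥1 read per output were kept.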

Compared with G69A U106C C114A G120C, G69A U116C is lower in “polymerase ribozyme fitness (log ratio)” value: -3.12 for the first, -3.45 for the second.

Compared with G69A U129G, G69C is higher in “polymerase ribozyme fitness (log ratio)” value: -3.2 for the first, -1.27 for the second.

Compared with G69C A83U C99A C102A, G69C A90C A91G A108C U112A is higher in “polymerase ribozyme fitness (log ratio)” value: -6.91 for the first, -6.22 for the second.

Going from G69C A95G to G69C A121U, the “polymerase ribozyme fitness (log ratio)” value rises from -1.13 to 0.369.

Compared with G69C C73A, G69C C76U is lower in “polymerase ribozyme fitness (log ratio)” value: -1.18 for the first, -4.07 for the second.

Going from G69C C80U to G69C C86A C94U C114U, the “polymerase ribozyme fitness (log ratio)” value falls from -2.38 to -6.26.

Compared with G69C C86G, G69C C88U is higher in “polymerase ribozyme fitness (log ratio)” value: -2.97 for the first, -1.17 for the second.

Going from G69C C97A to G69C C115A, the “polymerase ribozyme fitness (log ratio)” value rises from -6.49 to -0.724.

First: G69C C115U
Second: G69C C115U G128A
The “polymerase ribozyme fitness (log ratio)” value of the first is higher: -1.75 for the first, -4.75 for the second.

Going from G69C C123A to G69C G113A C114A U125A U133A, the “polymerase ribozyme fitness (log ratio)” value falls from -0.685 to -4.08.

First: G69C G113U
Second: G69C G120A
The “polymerase ribozyme fitness (log ratio)” value of the first is lower: -4.51 for the first, -0.926 for the second.

Going from G69C G122A to G69C G128C, the “polymerase ribozyme fitness (log ratio)” value falls from -1.53 to -3.85.

First: G69C G135A
Second: G69C G135U
The “polymerase ribozyme fitness (log ratio)” value of the first is higher: -1.9 for the first, -2.29 for the second.

G69C U78C U106A and G69C U81C C88U U106C are within 0.2 log units of each other in “polymerase ribozyme fitness (log ratio)” value: -2.46 for the first, -2.4 for the second.

Compared with G69C U87A C123G, G69C U92A is lower in “polymerase ribozyme fitness (log ratio)” value: -0.694 for the first, -5.61 for the second.

Compared with G69C U96A, G69C U96G U106C is lower in “polymerase ribozyme fitness (log ratio)” value: -2.44 for the first, -3.19 for the second.

Going from G69C U106A to G69U, the “polymerase ribozyme fitness (log ratio)” value rises from -1.14 to 0.48.

Going from G69U A83U to G69U A91C C114A C124U U126C, the “polymerase ribozyme fitness (log ratio)” value falls from -0.34 to -2.19.

First: G69U A91U C99U U109G
Second: G69U A103C
The “polymerase ribozyme fitness (log ratio)” value of the first is lower: -3.63 for the first, -1.85 for the second.

Compared with G69U A103G U106A, G69U A111G is higher in “polymerase ribozyme fitness (log ratio)” value: -4.7 for the first, 1.89 for the second.

G69U A118G and G69U C70G C88U C115A are within 0.2 log units of each other in “polymerase ribozyme fitness (log ratio)” value: -0.0784 for the first, -0.11 for the second.

First: G69U C72U
Second: G69U C76G U133A
The “polymerase ribozyme fitness (log ratio)” value of the first is higher: -0.304 for the first, -2.07 for the second.

Going from G69U C79G to G69U C80G, the “polymerase ribozyme fitness (log ratio)” value falls from -1.63 to -2.32.

Going from G69U C82G C89A to G69U C85A, the “polymerase ribozyme fitness (log ratio)” value rises from -1.32 to -1.08.

G69U C86G and G69U C86G C94U C124G G135A are within 0.2 log units of each other in “polymerase ribozyme fitness (log ratio)” value: 0.0893 for the first, 0.0412 for the second.

Going from G69U C86G U96G C114A to G69U C88A G127C U131A, the “polymerase ribozyme fitness (log ratio)” value falls from -2.17 to -2.72.

Compared with G69U C94U, G69U C94U C101A is lower in “polymerase ribozyme fitness (log ratio)” value: 1.7 for the first, -0.271 for the second.

Compared with G69U C98A, G69U C99A is lower in “polymerase ribozyme fitness (log ratio)” value: -2.07 for the first, -3.23 for the second.

First: G69U C99G
Second: G69U C102G
The “polymerase ribozyme fitness (log ratio)” value of the first is lower: -6.24 for the first, -2.76 for the second.

First: G69U C102U A121U
Second: G69U C104A
The “polymerase ribozyme fitness (log ratio)” value of the first is lower: -3.9 for the first, -0.638 for the second.

First: G69U C104A G113C
Second: G69U C104G
The “polymerase ribozyme fitness (log ratio)” value of the first is higher: -1.8 for the first, -4.34 for the second.

First: G69U C115G
Second: G69U G71A A75U A103U C124G
The “polymerase ribozyme fitness (log ratio)” value of the first is higher: -0.0637 for the first, -3.98 for the second.

G69U G71U and G69U G93A A118G G135U are within 0.2 log units of each other in “polymerase ribozyme fitness (log ratio)” value: -0.811 for the first, -0.918 for the second.

Compared with G69U G93C A95U A103U C114U, G69U G93U U109C is lower in “polymerase ribozyme fitness (log ratio)” value: -3.98 for the first, -4.75 for the second.

Going from G69U G113C G122C G127A U132A to G69U G120A, the “polymerase ribozyme fitness (log ratio)” value rises from -4.29 to 1.25.

Compared with G69U G120C, G69U U78A A91U A111C is lower in “polymerase ribozyme fitness (log ratio)” value: 1.2 for the first, -0.0328 for the second.

First: G69U U78C A84G G122A G128A
Second: G69U U78G A91C U92G
The “polymerase ribozyme fitness (log ratio)” value of the first is lower: -3.23 for the first, -0.788 for the second.

Compared with G69U U78G C79A U116A U129G, G69U U81C is higher in “polymerase ribozyme fitness (log ratio)” value: -5.04 for the first, 0.131 for the second.

First: G69U U87A
Second: G69U U87C C104A
The “polymerase ribozyme fitness (log ratio)” value of the first is higher: 0.245 for the first, -0.553 for the second.

Compared with G69U U92A U130A, G69U U132A is higher in “polymerase ribozyme fitness (log ratio)” value: -1.5 for the first, 0.176 for the second.

Compared with C70A A84U, C70A A90G is lower in “polymerase ribozyme fitness (log ratio)” value: -0.795 for the first, -1.9 for the second.

First: C70A A91G
Second: C70A C72G C102A C104A
The “polymerase ribozyme fitness (log ratio)” value of the first is higher: -2.74 for the first, -6.86 for the second.
